Results from PMC3818223, “A RhoC Biosensor Reveals Differences in the Activation Kinetics of RhoA and RhoC in Migrating Cells” (PLoS ONE, 2013).

Columns and labels:
[1] = biological target: T1, RhoC Q63L, full length, as the C-terminal module of the RhoC FLARE.sc biosensor (UniProt P08134 1-193, Q63L); assay: FRET or BRET; intramolecular FRET of the single-chain biosensor (binding domain-mCerulean-linker-mVenus-RhoC); fluorometry of cold, live HEK293T cell suspensions in PBS 48 h after transfection, excitation 433 nm, emission 450-600 nm, FRET/CFP ratio; settings: partners not purified
T1 construct: RhoC GTPase, full length, with Q63L; On one chain with m1, as m2; also called constitutively active mutant; source: HEK293T, transfected (Lipofectamine2000), in live cell suspension; not shown: monomeric Venus, N-terminal, kept

[2] = biological target: T2, RhoC G14V, full length, as the C-terminal module of the RhoC FLARE.sc biosensor (UniProt P08134 1-193, G14V); assay: as above; settings: partners not purified
T2 construct: RhoC GTPase, full length, with G14V; On one chain with m1, as m2; also called constitutively active mutant; source: HEK293T, transfected (Lipofectamine2000), in live cell suspension; not shown: monomeric Venus, N-terminal, kept
T2 sequence (P08134 whole entry G14V): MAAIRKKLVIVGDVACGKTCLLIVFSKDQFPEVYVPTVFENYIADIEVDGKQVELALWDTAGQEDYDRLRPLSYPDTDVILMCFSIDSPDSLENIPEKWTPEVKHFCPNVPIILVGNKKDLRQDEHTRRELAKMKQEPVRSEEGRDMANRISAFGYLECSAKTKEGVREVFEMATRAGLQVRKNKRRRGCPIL

T1 sequence (P08134 whole entry Q63L, the tested form may be a part): as the sequence (P08134 whole entry G14V) above, with V14G, Q63L counted along it

B1: ROCK1 Rho binding domain (RBD, amino acids 905-1046), as the N-terminal module of the RhoC FLARE.sc biosensor (domain or fragment, UniProt Q13464 905-1046, looked up)
chain: ARGLLEEQYFELTQESKKAASRNRQEITDKDHTVSRLEEANSMLTKDIEILRRENEELTEKMKKAEEEYKLEKEEEISNLKAAFEKNINTERTLKTQAVNKLAEIMNRKDFKIDRKKANTQDLRKKEKENRKLQLELNQERE
notes: It is split from RhoC here so that the intramolecular pair can be written; Subcloned into pTriEX-HisMyc4 (Novagen), which may add His and Myc tags; source: HEK293T, transfected (Lipofectamine2000), in live cell suspension; not shown: monomeric Cerulean, C-terminal, kept
[1]
  increase in FRET ratio against the T19N biosensor: 41%
[2]
  increase in FRET ratio against the T19N biosensor: 41%
